Measured values: the Immune Epitope Database (IEDB)

Columns and labels:
HLA-A*24:02 [1] = assay: IEDB peptide-MHC binding, purified MHC/competitive/fluorescence; ≥ and ≤ were set here for values at or beyond the usual limits of such assays
HLA-A*02:01 [2] = assay: as above
HLA-A*32:01 = assay: IEDB peptide-MHC binding, purified MHC/competitive/radioactivity; filed as Kd, often an IC50 or EC50 that approximates it; ≥ and ≤ were set here for values at or beyond the usual limits of such assays
HLA-A*02:06 = assay: as above; conditions: source organism: Dengue virus 1 Brazil/97-11/1997
HLA-A*30:01 = assay: as above
HLA-B*44:03 = assay: as above
HLA-B*44:02 = assay: as above
HLA-B*40:01 = assay: as above
HLA-B*53:01 = assay: as above
HLA-A*01:01 [3] = assay: IEDB peptide-MHC binding, purified MHC/direct/fluorescence; filed as Kd, often an IC50 or EC50 that approximates it; ≥ and ≤ were set here for values at or beyond the usual limits of such assays
HLA-B*58:01 = assay: as above; conditions: source organism: SARS-CoV1
HLA-A*24:02 [4] = assay: IEDB peptide-MHC binding, purified MHC/competitive/radioactivity; filed as Kd, often an IC50 or EC50 that approximates it; ≥ and ≤ were set here for values at or beyond the usual limits of such assays
HLA-A*30:02 = assay: as above
HLA-A*01:01 [5] = assay: as above
HLA-A*29:02 = assay: as above
HLA-A*26:01 = assay: as above
HLA-A*23:01 = assay: as above
HLA-A*69:01 = assay: IEDB peptide-MHC binding, purified MHC/direct/fluorescence; filed as Kd, often an IC50 or EC50 that approximates it; ≥ and ≤ were set here for values at or beyond the usual limits of such assays; conditions: source organism: Entamoeba histolytica HM-1:IMSS
HLA-A*02:01 [6] = assay: as above; conditions: source organism: Entamoeba histolytica HM-1:IMSS
[7] = source organism: Sudan ebolavirus
[8] = source organism: Dengue virus 1 Brazil/97-11/1997
[9] = source organism: Dengue virus 3 Martinique/1243/1999
[10] = source organism: Vaccinia virus WR
[11] = source organism: Dengue virus 2 Jamaica/1409/1983
[12] = source organism: Zaire ebolavirus
[13] = source organism: SARS coronavirus Tor2
[14] = source organism: Dengue virus 4 Philippines/H241/1956
[15] = source organism: Mammarenavirus whitewaterense
[16] = source organism: Mammarenavirus guanaritoense

MEGLSLLQL
IC50 (HLA-A*24:02 [1]; [7]): 22300 nM | IC50 (HLA-A*02:01 [2]; [7]): ≥ 88900 nM

KQWFLDLPL
Kd (HLA-A*32:01; [8]): 13.3 nM | Kd (HLA-A*02:06): 7.51 nM

VTEIGRVPSH
Kd (HLA-A*30:01; [9]): ≥ 22900 nM

RQVEKVETW
Kd (HLA-A*32:01; [9]): 79.6 nM

KTMAPVHTY
Kd (HLA-A*32:01; [10]): 4.55 nM

IGEWAFWEN
IC50 (HLA-A*24:02 [1]; [7]): 58800 nM

LENIMWKQI
Kd (HLA-B*44:03; [8]): 204 nM | Kd (HLA-B*44:02; [8]): 115 nM

MTVASRQPI
Kd (HLA-A*32:01; [10]): 2860 nM

IHAKHEWMTT
Kd (HLA-A*32:01; [11]): 5230 nM

FEKQLGQVML
Kd (HLA-B*40:01; [11]): 130 nM

ISQHQHLAI
Kd (HLA-A*32:01; [10]): 107 nM

VMEITAEWLW
Kd (HLA-B*53:01; source organism: Dengue virus 3 Singapore/8120/1995): 1030 nM

ALATFTVNI
Kd (HLA-A*32:01; [10]): 6.07 nM

TVKDGRLGA
Kd (HLA-A*30:01; [10]): 240 nM

SIRRNLALK
Kd (HLA-A*30:01; [10]): 12.4 nM

LSDHQDLKW
Kd (HLA-A*01:01 [3]; source organism: SARS-CoV1): 818 nM | Kd (HLA-B*58:01): 26.6 nM

DFQESADSF
IC50 (HLA-A*24:02 [1]; [12]): 55000 nM

KAKEMNALS
Kd (HLA-A*30:01; [10]): 50.5 nM

GILPWTKIS
IC50 (HLA-A*24:02 [1]; [10]): ≥ 133000 nM | IC50 (HLA-A*02:01 [2]; [10]): 17200 nM

PTTTYTLEY
Kd (HLA-A*01:01 [3]; source organism: Mycobacterium tuberculosis): 14.2 nM

ITTDSRCPTQ
Kd (HLA-A*30:01; [9]): 866 nM

KAQREIFSA
IC50 (HLA-A*24:02 [1]; source organism: Variola virus): 165 nM | IC50 (HLA-A*02:01 [2]; source organism: Variola virus): 2010 nM

YYQLESTQI
Kd (HLA-A*24:02 [4]; [13]): 7.7 nM | Kd (HLA-A*30:02; [13]): ≥ 81100 nM | Kd (HLA-A*01:01 [5]; [13]): ≥ 52800 nM | Kd (HLA-A*29:02; [13]): 247 nM | Kd (HLA-A*26:01; [13]): ≥ 77900 nM | Kd (HLA-A*23:01; [13]): 126 nM

HYAYMVPGW
IC50 (HLA-A*24:02 [1]; source organism: West Nile virus): 220 nM

HIKNDFMIK
Kd (HLA-A*30:01; [10]): 1.6 nM

MMSAPPAEY
Kd (HLA-A*24:02 [4]; [13]): 12700 nM | Kd (HLA-A*30:02; [13]): 0.112 nM | Kd (HLA-A*01:01 [5]; [13]): 182 nM | Kd (HLA-A*29:02; [13]): 1.23 nM | Kd (HLA-A*26:01; [13]): 2240 nM | Kd (HLA-A*23:01; [13]): ≥ 51100 nM

FEEYKRSGIL
Kd (HLA-B*40:01; [14]): 18.7 nM

MTTEDMLKVW
Kd (HLA-B*53:01; [14]): 1150 nM

AEPPFGDSYI
Kd (HLA-B*44:03; [11]): 79.3 nM | Kd (HLA-B*44:02; [11]): 432 nM | Kd (HLA-B*40:01; [11]): 1990 nM

KWDLLKYDF
Kd (HLA-A*24:02 [4]; [13]): ≥ 28400 nM | Kd (HLA-A*30:02; [13]): 89.3 nM | Kd (HLA-A*01:01 [5]; [13]): ≥ 78100 nM | Kd (HLA-A*29:02; [13]): 4.95 nM | Kd (HLA-A*26:01; [13]): ≥ 77900 nM | Kd (HLA-A*23:01; [13]): 12700 nM

LEIDFGECPG
Kd (HLA-B*40:01; [14]): 10200 nM

TARSNNRLA
Kd (HLA-A*30:01; [10]): 57.6 nM

HDHHFTPQI
Kd (HLA-A*24:02 [4]; [15]): ≥ 77500 nM | Kd (HLA-A*30:02; [15]): ≥ 76900 nM | Kd (HLA-A*01:01 [5]; [15]): ≥ 78100 nM | Kd (HLA-A*29:02; [15]): ≥ 78900 nM | Kd (HLA-A*26:01; [15]): ≥ 77900 nM | Kd (HLA-A*23:01; [15]): ≥ 45300 nM

GTGPEASLPY
Kd (HLA-A*24:02 [4]; [13]): ≥ 70300 nM | Kd (HLA-A*30:02; [13]): 920 nM | Kd (HLA-A*01:01 [5]; [13]): 349 nM | Kd (HLA-A*29:02; [13]): 117 nM | Kd (HLA-A*26:01; [13]): 412 nM | Kd (HLA-A*23:01; [13]): ≥ 70000 nM

EYADVFHLYL
Kd (HLA-A*24:02 [4]; [13]): 16.7 nM | Kd (HLA-A*30:02; [13]): 1350 nM | Kd (HLA-A*01:01 [5]; [13]): 85.5 nM | Kd (HLA-A*29:02; [13]): 160 nM | Kd (HLA-A*26:01; [13]): 1970 nM | Kd (HLA-A*23:01; [13]): 9.55 nM

LKILVLSIL
Kd (HLA-A*24:02 [4]; [16]): 1830 nM | Kd (HLA-A*30:02; [16]): 11000 nM | Kd (HLA-A*01:01 [5]; [16]): 272 nM | Kd (HLA-A*29:02; [16]): 15100 nM | Kd (HLA-A*26:01; [16]): ≥ 32600 nM | Kd (HLA-A*23:01; [16]): 11100 nM

RTSSDPGTN
IC50 (HLA-A*24:02 [1]; [12]): ≥ 98100 nM

KLYDSVYLT
Kd (HLA-A*69:01): ≥ 20000 nM | Kd (HLA-A*02:01 [6]): 7.6 nM
